Test results taken from patent US20120316071A1 (published 2012).
Substitutions are numbered along the chain they refer to. In names and notes the source's numbering stands. Blank lines part the entries; values can stand above or below the binder they belong to.

Experiments:
[1] = target: T1, rHuman ErbB2/Fc Chimera, CF (R&D Systems Cat#1129-ER) (human, UniProt P04626 23-652); assay: ECL multispot (MSD), antigen spotted, Fab in solution; blank spot 407
T1 construct: Bought reagent

[2] = target: T2, rHuman EGF R/Fc Chimera, CF (R&D Systems Cat#344-ER) (human, UniProt P00533 25-645); assay: as above
T2 construct: Bought reagent

[3] = target: T3, rHuman HGF R/c-MET/Fc Chimera, CF (R&D Systems Cat#358-MT/CF) (human, UniProt P08581 25-932); assay: as above
T3 construct: Bought reagent; also called HGF R/Fc
T3 sequence (P08581 25-932, change not shown): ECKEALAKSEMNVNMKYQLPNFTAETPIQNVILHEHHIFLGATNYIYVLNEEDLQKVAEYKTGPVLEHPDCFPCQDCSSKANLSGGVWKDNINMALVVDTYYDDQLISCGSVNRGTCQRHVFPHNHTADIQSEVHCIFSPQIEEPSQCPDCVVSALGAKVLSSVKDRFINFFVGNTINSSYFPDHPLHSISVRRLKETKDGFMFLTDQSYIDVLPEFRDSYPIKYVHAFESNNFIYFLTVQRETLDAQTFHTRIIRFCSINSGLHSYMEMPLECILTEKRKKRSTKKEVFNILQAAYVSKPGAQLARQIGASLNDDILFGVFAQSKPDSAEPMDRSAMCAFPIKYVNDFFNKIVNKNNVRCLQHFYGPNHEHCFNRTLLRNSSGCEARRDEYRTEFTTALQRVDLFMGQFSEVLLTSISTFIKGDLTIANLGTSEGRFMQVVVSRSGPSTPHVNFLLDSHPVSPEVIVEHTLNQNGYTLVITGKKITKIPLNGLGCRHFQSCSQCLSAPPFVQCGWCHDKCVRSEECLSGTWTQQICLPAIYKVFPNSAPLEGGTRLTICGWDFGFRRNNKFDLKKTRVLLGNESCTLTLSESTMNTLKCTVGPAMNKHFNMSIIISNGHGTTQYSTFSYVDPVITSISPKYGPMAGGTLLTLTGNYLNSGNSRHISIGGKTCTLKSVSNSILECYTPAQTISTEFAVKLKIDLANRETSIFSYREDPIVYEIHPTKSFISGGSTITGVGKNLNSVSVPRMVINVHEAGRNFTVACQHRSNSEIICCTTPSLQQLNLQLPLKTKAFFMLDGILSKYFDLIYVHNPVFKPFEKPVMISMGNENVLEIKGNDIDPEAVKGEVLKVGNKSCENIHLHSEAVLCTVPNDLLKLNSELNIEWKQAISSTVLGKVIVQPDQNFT

[4] = target: T4, rHuman Notch-1/Fc Chimera, CF (R&D Systems Cat#3647-TK) (human, UniProt P46531 19-526); assay: as above
T4 construct: Bought reagent

[5] = target: T5, rHuman CD44/Fc Chimera, CF (R&D Systems Cat#3660-CD) (human, UniProt P16070 21-220); assay: as above
T5 construct: Bought reagent

[6] = target: T6, rHuman IGF-1 sR (insulin-like growth factor-1 soluble receptor), CF (R&D Systems Cat#391-GR) (human, UniProt P08069 31-932); assay: as above
T6 construct: Bought soluble receptor

[7] = target: T7, rHuman P-Cadherin/Fc Chimera, CF (R&D Systems Cat#861-PC) (human, UniProt P22223 108-654); assay: as above
T7 construct: Bought reagent

[8] = target: T8, rHuman Erythropoietin R/Fc Chimera, CF (R&D Systems Cat#963-ER) (human, UniProt P19235 25-250); assay: as above
T8 construct: Bought reagent; also called EPO R; Epo R/Fc
T8 sequence (looked up): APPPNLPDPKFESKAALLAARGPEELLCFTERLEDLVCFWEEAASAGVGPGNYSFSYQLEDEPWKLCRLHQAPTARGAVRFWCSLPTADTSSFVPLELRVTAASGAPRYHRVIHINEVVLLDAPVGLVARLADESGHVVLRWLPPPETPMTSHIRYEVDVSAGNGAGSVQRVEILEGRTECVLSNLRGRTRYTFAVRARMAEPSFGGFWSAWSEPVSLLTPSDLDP

[9] = target: T9, Recombinant Human DLL4 (R&D Systems Cat#1506-D4/CF) (human, UniProt Q9NR61 27-524); assay: as above
T9 construct: Bought recombinant protein; also called delta-like protein 4; rHuman DLL4

[10] = target: T1, rHuman ErbB2/Fc Chimera, CF (R&D …); assay: ECL multispot (MSD), antigen spotted, Fab in solution; blank spot 416
[11] = target: T2, rHuman EGF R/Fc Chimera, CF (R&D …); assay: as above
[12] = target: T3, rHuman HGF R/c-MET/Fc Chimera, CF (R&D …); assay: as above
[13] = target: T4, rHuman Notch-1/Fc Chimera, CF (R&D …); assay: as above
[14] = target: T5, rHuman CD44/Fc Chimera, CF (R&D Systems …); assay: as above
[15] = target: T6, rHuman IGF-1 sR (insulin-like growth …); assay: as above
[16] = target: T7, rHuman P-Cadherin/Fc Chimera, CF (R&D …); assay: as above
[17] = target: T8, rHuman Erythropoietin R/Fc Chimera, CF …; assay: as above
[18] = target: T9, Recombinant Human DLL4 (R&D Systems …); assay: as above
[19] = target: T1, rHuman ErbB2/Fc Chimera, CF (R&D …); assay: ECL multispot (MSD), antigen spotted, Fab in solution; blank spot 262
[20] = target: T2, rHuman EGF R/Fc Chimera, CF (R&D …); assay: as above
[21] = target: T3, rHuman HGF R/c-MET/Fc Chimera, CF (R&D …); assay: as above
[22] = target: T4, rHuman Notch-1/Fc Chimera, CF (R&D …); assay: as above
[23] = target: T5, rHuman CD44/Fc Chimera, CF (R&D Systems …); assay: as above
[24] = target: T6, rHuman IGF-1 sR (insulin-like growth …); assay: as above
[25] = target: T7, rHuman P-Cadherin/Fc Chimera, CF (R&D …); assay: as above
[26] = target: T8, rHuman Erythropoietin R/Fc Chimera, CF …; assay: as above
[27] = target: T9, Recombinant Human DLL4 (R&D Systems …); assay: as above
[28] = target: T1, rHuman ErbB2/Fc Chimera, CF (R&D …); assay: ECL multispot (MSD), antigen spotted, Fab in solution; blank spot 306
[29] = target: T2, rHuman EGF R/Fc Chimera, CF (R&D …); assay: as above
[30] = target: T3, rHuman HGF R/c-MET/Fc Chimera, CF (R&D …); assay: as above
[31] = target: T6, rHuman IGF-1 sR (insulin-like growth …); assay: as above
[32] = target: T7, rHuman P-Cadherin/Fc Chimera, CF (R&D …); assay: as above
[33] = target: T9, Recombinant Human DLL4 (R&D Systems …); assay: as above

- ECL signal [10]: 434
- ECL signal [11]: 456
- ECL signal [12]: 458
- ECL signal [13]: 576
- ECL signal [14]: 455
- ECL signal [15]: 404
- ECL signal [16]: 465
- ECL signal [17]: 571
- ECL signal [18]: 146000
B2: Fab VH1-46_IGHD6-6*01_IGHJ1*01 S102A/S103P/S104F/H111F (APFF) & L6_IGKJ1*01 S30R (Fab, V domains shown)
VH: QVQLVQSGAEVKKPGASVKVSCKASGYTFTSYYMHWVRQAPGQGLEWMGIINPSGGSTSYAQKFQGRVTMTRDTSTSTVYMELSSLRSEDTAVYYCAREEYAPFSAEYFQFWGQGTLVTVSS
VL: EIVLTQSPATLSLSPGERATLSCRASQSVRSYLAWYQQKPGQAPRLLIYDASNRATGIPARFSGSGSGTDFTLTISSLEPEDFAVYYCQQRSNWPPWTFGQGTKVEIKR
notes: Tested as Fab made in E. coli: VH joined to CH1 from Plasmid A (His6 and Flag tags), VL joined to kappa CL from Plasmid C; also called APFF / S30R

- ECL signal [28]: 412
- ECL signal [29]: 386
- ECL signal [30]: 349
- ECL signal [31]: 409
- ECL signal [32]: 466
- ECL signal [33]: 208000
B4: Fab VH1-46_IGHD6-6*01_IGHJ1*01 S102A/S103P/S104F/H111F (APFF) & L6_IGKJ1*01 (Fab, V domains shown)
VH: B2 VH
VL: not shown
notes: Tested as Fab made in E. coli: VH joined to CH1 from Plasmid A (His6 and Flag tags), VL joined to kappa CL from Plasmid C; Light chain unmutated (parent); also called APFF / parent; H:APFF & L:wt

Further lines, the binder ahead of its results:

B1: Fab VH1-46_IGHD6-6*01_IGHJ1*01 S102A/S103P/S104F/H111F (APFF) & L6_IGKJ1*01 S30T (Fab, V domains shown)
VH: B2 VH
VL: B2 VL with R30T
notes: Tested as Fab made in E. coli: VH joined to CH1 from Plasmid A (His6 and Flag tags), VL joined to kappa CL from Plasmid C; also called APFF / S30T
- ECL signal [1]: 332
- ECL signal [2]: 360
- ECL signal [3]: 375
- ECL signal [4]: 413
- ECL signal [5]: 423
- ECL signal [6]: 410
- ECL signal [7]: 370
- ECL signal [8]: 497
- ECL signal [9]: 122000

B3: Fab VH1-46_IGHD6-6*01_IGHJ1*01 S102A/S103P/S104F/H111F (APFF) & L6_IGKJ1*01 S30P (Fab, V domains shown)
VH: B2 VH
VL: B2 VL with R30P
notes: Tested as Fab made in E. coli: VH joined to CH1 from Plasmid A (His6 and Flag tags), VL joined to kappa CL from Plasmid C; also called APFF / S30P
- ECL signal [19]: 391
- ECL signal [20]: 394
- ECL signal [21]: 328
- ECL signal [22]: 544
- ECL signal [23]: 334
- ECL signal [24]: 356
- ECL signal [25]: 348
- ECL signal [26]: 520
- ECL signal [27]: 1140
